Test results: doi:10.1101/2025.03.19.644124

How the values were obtained:
Assay in all cases: BLI
[1] = molecular target: biotinylated PpBRCA2-BRC4 peptide (Physcomitrium patens)
[2] = molecular target: biotinylated PpBRCA2-BRC2 peptide (Physcomitrium patens)
[3] = molecular target: 6His-PpBRCA2-Cter (amino acids 251 to 391) (Physcomitrium patens)
[4] = molecular target: biotinylated PpBRCA2-BRC1 peptide (Physcomitrium patens)

Substance “recombinant PpRAD51-2, tag-free (natural protein)” has a Kd [1] of 400 nM, a Kd [2] of 800 nM and a Kd [3] of 4.3 nM. For the same substance, the Kd [4] was 400 nM.
